Results from patent JP2013532970A, “追加のジスルフィド結合を含有するヒトインスリン” (ノヴォ ノルディスク アー/エス, priority 2010, dated 2011).

Assay: Thioflavin T (ThT) fibrillation assay
Assay type: physicochemical
Conditions: 7 mM sodium phosphate pH 7.4, 1 μM ThT, 37℃, orbital shaking 960 rpm

Row | Substance | Fibrillation within the 45-hour experiment (ThT fluorescence) (45 h) | ThT fibrillation lag time
1 | A10C, B4C, desB30ヒトインスリン [実施例4] | 細線維化しなかった | 
2 | ヒトインスリン: Human insulin hormone (prior art), 21-residue A chain and 30-residue B chain; used as the reference |  | < 2 時間
